Publication PMC9574477 (Science (New York, N.Y.), 2022)

Assays:
[1] = target: ACKR3 wild type, expressed in cells for the NanoBiT β-arrestin recruitment assay (UniProt P25106)
[2] = target: ACKR3 wild type, Tango assay construct (UniProt P25106)
[3] = target: ACKR3 wild type, expressed in cells for the NanoBiT β-arrestin recruitment assay (UniProt P25106 1-362); assay: cell-based or functional assay
ACKR3 wild type, expressed in cells for the NanoBiT β-arrestin recruitment assay (UniProt P25106 1-362), sequence (P25106 whole entry): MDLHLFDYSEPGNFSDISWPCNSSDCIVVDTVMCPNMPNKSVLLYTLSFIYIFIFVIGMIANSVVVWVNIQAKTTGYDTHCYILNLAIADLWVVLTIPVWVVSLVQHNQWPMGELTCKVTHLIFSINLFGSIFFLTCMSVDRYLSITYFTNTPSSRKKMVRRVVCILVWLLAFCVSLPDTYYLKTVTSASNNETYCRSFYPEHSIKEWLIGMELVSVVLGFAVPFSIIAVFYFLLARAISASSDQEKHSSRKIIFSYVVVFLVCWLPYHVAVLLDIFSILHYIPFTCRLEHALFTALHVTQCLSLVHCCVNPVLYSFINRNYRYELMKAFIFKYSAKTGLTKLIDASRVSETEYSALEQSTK

CXCL12, sequence (P48061 22-93): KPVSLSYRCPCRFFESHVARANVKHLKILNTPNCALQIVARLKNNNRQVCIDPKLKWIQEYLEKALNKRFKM
ACKR3 wild type, Tango assay construct, sequence (P25106 whole entry): as the sequence (P25106 whole entry) above
ACKR3 wild type, expressed in cells for the NanoBiT β-arrestin recruitment assay (UniProt P25106), sequence (P25106 whole entry): as above

CXCL12 (from UniProt P48061 22-93) (ligand)
β-arrestin-2 recruitment to ACKR3, NanoBiT, EC50 [1]: 0.75 nM
β-arrestin-2 recruitment to ACKR3, Tango assay, EC50 [2]: 3.9 nM

FGGFMRRK [LIH383]
β-arrestin-2 recruitment to ACKR3, NanoBiT, EC50 [3]: 4.8 nM
